Laboratory results taken from patent US20250230234A1 (Sanofi, published 2025).
Positions count from the first letter of the chain named. In names and notes the source's numbering stands. Several values for one entry are separate records, joined by “and”; a condition that tells them apart may be missing. Identical values can stand only once.

Legend:
[1] = target: T1, human GPRC5D (full length, on cells) (human, UniProt Q9NZD1 1-345); assay: cell-based or functional assay
[2] = target: T1, human GPRC5D (full length, on cells); assay: cell-based or functional assay; remark: listed apart in the source
[3] = target: T1, human GPRC5D (full length, on cells); assay: cell-based or functional assay; remark: listed apart in the source
[4] = target: T1, human GPRC5D (full length, on cells); assay: cell-based or functional assay; remark: listed apart in the source
[5] = target: T1, human GPRC5D (full length, on cells); assay: cell-based or functional assay; remark: listed apart in the source
[6] = target: T1, human GPRC5D (full length, on cells); assay: flow cytometry on MM.1R cells, apparent KD, mean
Description: (§1) FACS analyses were performed to determine the ability of the ADCC-enhanced antibodies to bind to cells that express GPRC5D on their surface.
(§2) Analyses were performed with Forecyt® Software. Cells were first gated in FSC (forward scatter)/SSC (side scatter). From the resulting cell population, single live cells were gated. Binding was analyzed as median fluorescence intensity (MFI) of the secondary antibody. Curves and apparent KD (“AppKD”) calculations were generated using GraphPad Prism Software (FIG. 2).

[7] = target: T1, human GPRC5D (full length, on cells); assay: flow cytometry on MM.1R cells, apparent KD, N = 1
Description: as §1, §2

[8] = target: T1, human GPRC5D (full length, on cells); assay: flow cytometry on MM.1R cells, apparent KD, N = 2
Description: as §1, §2

[9] = target: T1, human GPRC5D (full length, on cells); assay: flow cytometry on MM.1R cells, apparent KD, N = 3
Description: as §1, §2

huFcγRIIa_R167 [10] = target: T2, huFcγRIIa_R167 (human, UniProt P12318 36-218, limits assumed); assay: SPR Biacore T200, receptor captured by anti-His, single cycle kinetics
T2 construct: also called huFcγRIIA R167 polymorph
T2 sequence (looked up): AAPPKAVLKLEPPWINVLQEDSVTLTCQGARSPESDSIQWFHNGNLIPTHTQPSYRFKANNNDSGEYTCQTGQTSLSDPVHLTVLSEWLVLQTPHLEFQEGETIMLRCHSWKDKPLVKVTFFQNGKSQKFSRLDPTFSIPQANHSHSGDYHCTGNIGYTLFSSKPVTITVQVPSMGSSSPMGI

huFcRn [11] = target: T3, huFcRn (human, UniProt P55899 24-297; P61769 21-119); assay: SPR Biacore T200, huFcRn on biotin CAPture, pH 5.9, mean of two; pH 5.9
T3 construct: also called human FcRn
Description: (§3) The interaction of the antibodies with human Fc receptors was analysed by SPR using a Biacore™ T200 instrument in the following test conditions: [0242] Immobilization of anti-His antibodies on a CM5 sensor chip via amine coupling for seven Fcγ receptors: huFcγRI, huFcγRIIa_H131, huFcγRIIa_R131, huFcγRIIb/c, huFcγRIIIa_V158, huFcγRIIIa_F158, huFcγRIIIb, or use of biotin CAPture for the huFcRn analysis [0243] Capture of each of the Fc receptors [0244] Affinity constant determination by single cycle kinetics (SCK) at concentrations ranging from 0.6 nM to 2000 nM [0245] Interaction with huFcRn was studied at pH5.9 and pH7.4

[12] = target: T4, cynomolgus FcγRIIIa expressed on HEK293 T cells (cynomolgus, UniProt Q8SPW2 17-254); assay: flow cytometry on HEK293 T cells expressing cyno FcγRIIIa, against BM2 IgG1 wt
T4 construct: whole, on cells; also called cyno FcγRIIIa; cy FcγRIIIa
Description: (§4) The antibodies were tested using FACS for their ability to bind cells that express human or cynomolgus FcγRIIIa on their surface. The cell lines used were recombinant stable HEK293 T cells expressing human FcγRIIIa V158 and cynomolgus FcγRIIIa to assess cynomolgus cross-reactivity.
(§5) For dose-response curves, cells were incubated with a serial dilution of the antibodies (from 0.0001 μg/mL to 100 μg/mL) for 1 h at 4° C.
(§6) Analyses were performed with VenturiOne® Software. Cells were first gated in FSC/SSC. From the resulting cell population, single cells and following viable cells were gated. Binding was analyzed as median fluorescence intensity (MFI) of the secondary antibody.

huFcγRIIIa_F158 = target: T5, huFcγRIIIa_F158 (human, UniProt P08637 17-208); assay: SPR Biacore T200, receptor captured by anti-His, single cycle kinetics, mean of two
T5 construct: Recombinant receptor captured on the SPR chip through anti-His antibodies; also called human FcγRIIIa F158 polymorph; CD16a
Description: as §3

huFcγRIIIa_V158 = target: T6, huFcγRIIIa_V158 (human, UniProt P08637 17-208); assay: as above
T6 construct: Recombinant receptor captured on the SPR chip through anti-His antibodies; V at position 158 (mature numbering, as the name says); also called human FcγRIIIa V158 polymorph; CD16a
Description: as §3

huFcγRIIa_H167 = target: T7, huFcγRIIa_H167 (human, UniProt P12318 36-218, limits assumed); assay: as above
T7 construct: also called huFcγRIIA H167 polymorph
T7 sequence (looked up): T2 sequence (looked up) with R132H
Description: as §3

huFcγRIIa_R167 [13] = target: T2, huFcγRIIa_R167; assay: as above
Description: as §3

huFcγRI = target: T8, huFcγRI (human, UniProt P12314 16-288); assay: as above
T8 construct: also called human FcγRI
Description: as §3

huFcγRIIIb = target: T9, huFcγRIIIb (human, UniProt O75015 17-200); assay: as above
T9 construct: also called human FcγRIIIb
Description: as §3

[14] = target: T10, human FcγRIIIa V158 expressed on HEK293 T cells (human, UniProt P08637 17-254); assay: flow cytometry on HEK293 T cells expressing human FcγRIIIa V158, against BM2 IgG1 wt
T10 construct: whole, on cells; Cell-surface form, kept apart from the soluble His-captured receptor m11; also called HEK293 T human FcγRIIIa V158; hu FcγRIIIa
Description: as §4, §5, §6

[15] = target: T4, cynomolgus FcγRIIIa expressed on HEK293 …; assay: flow cytometry on HEK293 T cells expressing cyno FcγRIIIa, apparent KD, mean of three
Description: as §4, §5
(§7) The apparent KD was determined for each molecule by drawing an appropriate non-linear regression curve using the one site-specific binding four parameters model with GraphPad Prism Software (FIG. 1).

[16] = target: T10, human FcγRIIIa V158 expressed on HEK293 …; assay: flow cytometry on HEK293 T cells expressing human FcγRIIIa V158, apparent KD, mean of three
Description: as §4, §5, §7

huFcRn [17] = target: T3, huFcRn; assay: SPR Biacore T200, huFcRn on biotin CAPture, pH 5.9, mean of two; pH 5.9; fold change vs BM1 IgG1 wt
[18] = target: T1, human GPRC5D (full length, on cells); assay: FACS on MM.1R cells (GPRC5D-positive), serial antibody dilution, goat anti-human IgG A488 secondary antibody, median fluorescence intensity
Description: as §1, §2

T6 sequence (P08637 17-208 F176V limits assumed): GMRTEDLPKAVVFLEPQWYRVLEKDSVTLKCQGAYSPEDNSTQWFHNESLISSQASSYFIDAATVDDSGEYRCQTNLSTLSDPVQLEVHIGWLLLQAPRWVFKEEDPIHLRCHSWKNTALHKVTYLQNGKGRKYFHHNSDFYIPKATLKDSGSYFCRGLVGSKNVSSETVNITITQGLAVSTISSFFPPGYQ
T5 sequence (P08637 17-208 limits assumed): as the sequence (P08637 17-208 F176V limits assumed) above, with V160F counted along it
T1 sequence (Q9NZD1 whole entry): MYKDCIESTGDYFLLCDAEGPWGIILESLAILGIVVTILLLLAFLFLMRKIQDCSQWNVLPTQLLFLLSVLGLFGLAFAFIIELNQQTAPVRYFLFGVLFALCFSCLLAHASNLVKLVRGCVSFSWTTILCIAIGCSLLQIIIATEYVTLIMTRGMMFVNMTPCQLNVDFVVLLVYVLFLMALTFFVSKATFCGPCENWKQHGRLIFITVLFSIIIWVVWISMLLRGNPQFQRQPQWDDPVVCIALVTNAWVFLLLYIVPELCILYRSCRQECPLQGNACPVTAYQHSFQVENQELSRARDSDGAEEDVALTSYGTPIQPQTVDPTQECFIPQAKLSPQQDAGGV
T10 sequence (P08637 17-254 F176V): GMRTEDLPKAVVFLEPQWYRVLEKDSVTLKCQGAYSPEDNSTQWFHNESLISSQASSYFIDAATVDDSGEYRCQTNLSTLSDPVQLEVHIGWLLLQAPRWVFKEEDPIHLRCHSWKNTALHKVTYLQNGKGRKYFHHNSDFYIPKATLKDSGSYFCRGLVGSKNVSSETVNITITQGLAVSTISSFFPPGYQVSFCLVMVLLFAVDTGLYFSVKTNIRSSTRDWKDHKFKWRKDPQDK
T4 sequence (Q8SPW2 17-254): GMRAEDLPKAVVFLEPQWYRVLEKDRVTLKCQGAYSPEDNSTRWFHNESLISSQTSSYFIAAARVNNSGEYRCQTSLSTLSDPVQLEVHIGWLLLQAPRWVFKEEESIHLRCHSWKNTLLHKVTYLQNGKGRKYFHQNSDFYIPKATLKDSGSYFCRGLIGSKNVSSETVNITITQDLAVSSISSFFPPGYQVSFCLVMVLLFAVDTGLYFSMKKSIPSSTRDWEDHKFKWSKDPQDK
T8 sequence (P12314 16-288 limits assumed): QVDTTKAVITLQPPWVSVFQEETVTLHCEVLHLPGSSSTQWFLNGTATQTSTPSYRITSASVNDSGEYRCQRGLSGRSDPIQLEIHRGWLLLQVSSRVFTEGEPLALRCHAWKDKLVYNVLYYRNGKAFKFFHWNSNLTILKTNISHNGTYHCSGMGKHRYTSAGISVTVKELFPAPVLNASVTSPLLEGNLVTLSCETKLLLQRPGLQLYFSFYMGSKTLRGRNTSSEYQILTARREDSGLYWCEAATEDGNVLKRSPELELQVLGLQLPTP
T3 sequence (P55899 24-297 limits assumed, chain 1 of 2): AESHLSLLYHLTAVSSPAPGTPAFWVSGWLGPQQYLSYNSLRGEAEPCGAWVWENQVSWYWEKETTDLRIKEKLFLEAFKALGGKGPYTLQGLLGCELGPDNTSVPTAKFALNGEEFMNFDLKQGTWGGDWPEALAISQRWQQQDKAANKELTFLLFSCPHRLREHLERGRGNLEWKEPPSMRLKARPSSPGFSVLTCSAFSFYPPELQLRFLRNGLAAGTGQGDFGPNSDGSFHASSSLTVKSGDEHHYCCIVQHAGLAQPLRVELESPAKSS
T3 sequence (P61769 21-119 limits assumed, chain 2 of 2): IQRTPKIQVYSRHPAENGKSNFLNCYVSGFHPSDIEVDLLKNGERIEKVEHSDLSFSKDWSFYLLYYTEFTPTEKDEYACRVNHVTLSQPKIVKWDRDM
T9 sequence (O75015 17-200 limits assumed): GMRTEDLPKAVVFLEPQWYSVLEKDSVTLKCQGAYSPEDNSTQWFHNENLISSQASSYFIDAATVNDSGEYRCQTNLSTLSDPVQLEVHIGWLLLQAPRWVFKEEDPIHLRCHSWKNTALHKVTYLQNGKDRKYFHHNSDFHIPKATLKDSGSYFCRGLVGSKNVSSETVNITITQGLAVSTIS

B1: clone 11 in DE-DSB format (anti-GPRC5D IgG1 with S239D/I332E/R292C/V302C Fc mutations) (antibody)
heavy: EVQLVESGGGLVQPGGSLRLSCAASGFTVSSNYMSWVRQAPGKGLEWVSVIYSGGSTYYADSVKGRFTISRDNSKNTLYLQMNSLRAEDTAVYYCARGFLAFGRYYYGMDVWGQGTTVTVSSASTKGPSVFPLAPSSKSTSGGTAALGCLVKDYFPEPVTVSWNSGALTSGVHTFPAVLQSSGLYSLSSVVTVPSSSLGTQTYICNVNHKPSNTKVDKKVEPKSCDKTHTCPPCPAPELLGGPDVFLFPPKPKDTLMISRTPEVTCVVVDVSHEDPEVKFNWYVDGVEVHNAKTKPCEEQYNSTYRCVSVLTVLHQDWLNGKEYKCKVSNKALPAPEEKTISKAKGQPREPQVYTLPPSRDELTKNQVSLTCLVKGFYPSDIAVEWESNGQPENNYKTTPPVLDSDGSFFLYSKLTVDKSRWQQGNVFSCSVMHEALHNHYTQKSLSLSPG
light: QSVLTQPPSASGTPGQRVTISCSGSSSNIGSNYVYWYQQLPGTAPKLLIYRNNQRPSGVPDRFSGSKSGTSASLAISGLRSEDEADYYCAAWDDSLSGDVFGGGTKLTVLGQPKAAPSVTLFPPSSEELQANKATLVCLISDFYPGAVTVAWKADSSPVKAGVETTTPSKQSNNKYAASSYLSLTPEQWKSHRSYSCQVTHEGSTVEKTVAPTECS
notes: human IgG1, lambda light chain; also called 11-DE-DSB; 11 DE-DSB
[1]
  EC50rel geometric mean, ADCP by macrophages against MM.1R cells (n = 5): 35.9 ng/mL
[2]
  relEC50 Median, ADCC (calcein release) against MM.1R cells with NK cells: 6 ng/ml and 40.1 pM
[3]
  relEC50 Median, ADCC (calcein release) against EJM cells with NK cells: 259 pM and 37.5 ng/ml
[4]
  relEC50 median, ADCC over four days (Incucyte) against MM.1R cells with NK cells: 0.87 ng/ml and 6 pM
[5]
  EC50 geometric mean, ADCP by macrophages against MM.1R cells (n = 5): 248 pM
  EC50rel, ADCP by macrophages against MM.1R cells, Donor1: 297 pM
  EC50rel, ADCP by macrophages against MM.1R cells, Donor3: 303 pM
  EC50rel, ADCP by macrophages against MM.1R cells, Donor4: 517 pM
  EC50rel, ADCP by macrophages against MM.1R cells, Donor5: 52.8 pM
[6]
  Kd: 0.024 nM
[7]
  Kd: 0.036 nM
[8]
  Kd: 0.018 nM
[9]
  Kd: 0.019 nM
huFcγRIIa_R167 [10]
  binding result: no binding (tested: 0.6 nM to 2000 nM)
huFcRn [11]
  Kd: 982 nM
[12]
  Fold change vs IgG1 wt: 26 fold
huFcγRIIIa_F158
  Fold change vs BM1 IgG1 wt: 10 fold
  Kd: 22.7 nM
  NormB: 45
huFcγRIIIa_V158
  Fold change vs BM1 IgG1 wt: 4 fold
  Kd: 12.2 nM
  NormB: 38
huFcγRIIa_H167
  Fold change vs BM1 IgG1 wt: 1 fold
  Kd: 2580 nM
  NormB: 15
huFcγRIIa_R167 [13]
  NormB: 2
huFcγRI
  Fold change vs BM1 IgG1 wt: 2 fold
  Kd: 0.499 nM
huFcγRIIIb
  Fold change vs BM1 IgG1 wt: 34 fold
  Kd: 52.9 nM
[14]
  Fold change vs IgG1 wt: 28 fold
[15]
  Kd: 1.4 nM
[16]
  Kd: 1.22 nM
huFcRn [17]
  Fold change vs BM1 IgG1 wt: 1 fold
[18]
  EC50 (read off the curve): ~0.02 nM
